Like-named read-outs stand apart in the source and are kept apart here.

Assay [1] concerns the target T1, human Y2 receptor (human, UniProt P49146 1-381).
T1 construct: whole, on cells
T1 sequence (looked up): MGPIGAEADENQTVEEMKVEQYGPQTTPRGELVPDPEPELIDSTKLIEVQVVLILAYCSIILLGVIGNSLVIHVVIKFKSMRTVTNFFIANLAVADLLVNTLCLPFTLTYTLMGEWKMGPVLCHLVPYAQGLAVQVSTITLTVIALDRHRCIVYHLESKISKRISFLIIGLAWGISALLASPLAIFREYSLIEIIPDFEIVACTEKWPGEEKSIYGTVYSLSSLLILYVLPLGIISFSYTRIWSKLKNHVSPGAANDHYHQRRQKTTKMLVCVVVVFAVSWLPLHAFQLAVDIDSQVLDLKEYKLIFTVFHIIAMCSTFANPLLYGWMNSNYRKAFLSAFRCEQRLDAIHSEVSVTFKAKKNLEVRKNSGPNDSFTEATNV
In words: 125I-PYY displacement, COS-7 membranes.

Assay [2] addresses T1, human Y2 receptor. In words: 125I-PYY displacement, COS-7 membranes. The source holds these as a separate data set.

B1: porcine NPY26-36 (peptide, UniProt P01304 35-45, looked up)
peptide: HYINLITRQRY
notes: range 26-36; Range counted on the mature peptide
For orientation: Ki means the equilibrium dissociation constant of an inhibitor or competing ligand from its target. Lower therefore signals a stronger hold on the target. With B1, the Ki with human Y2 receptor [1] and with human Y2 receptor [2] was 0.38 µM throughout.

These data come from patent US6713265 (SYNAPTIC PHARMACEUTICAL, dated 2004).
